Laboratory results from patent US20170319675A1.

Key:
Experiment in all cases: REVEAL MHC-peptide binding assay
HLA-DR1 (human) = target: HLA-DR1 (human)
HLA-DR2 (human) = target: HLA-DR2 (human)
HLA-DR4 (human) = target: HLA-DR4 (human)
HLA-DR5 (human) = target: HLA-DR5 (human)
HLA-DR7 (human) = target: HLA-DR7 (human)

Row | Binder | Relative Binding Score (% compared to the positive control) (HLA-DR1 (human)) | Relative Binding Score (% compared to the positive control) (HLA-DR2 (human)) | Relative Binding Score (% compared to the positive control) (HLA-DR4 (human)) | Relative Binding Score (% compared to the positive control) (HLA-DR5 (human)) | Relative Binding Score (% compared to the positive control) (HLA-DR7 (human))
1 | TLGEFLKLDRERAKN (peptide, from a related filing) [BIR-002] | 40.1 | 0.05 | 6.12 | 104 | 0.27
2 | TFSYVDPVITSISPKYG (peptide, from a related filing) [MET-005] | 0.87 | 0.28 | 5.89 | 0.12 | 3.69
